Experimental data reported in IntAct's records for PubMed 22500027.

B1: BBSome complex member BBS1 (Homo sapiens), Q8NFJ9 (parent)
chain: MAAASSSDSDACGAESNEANSKWLDAHYDPMANIHTFSACLALADLHGDGEYKLVVGDLGPGGQQPRLKVLKGPLVMTESPLPALPAAAATFLMEQHEPRTPALALASGPCVYVYKNLRPYFKFSLPQLPPNPLEQDLWNQAKEDRIDPLTLKEMLESIRETAEEPLSIQSLRFLQLELSEMEAFVNQHKSNSIKRQTVITTMTTLKKNLADEDAVSCLVLGTENKELLVLDPEAFTILAKMSLPSVPVFLEVSGQFDVEFRLAAACRNGNIYILRRDSKHPKYCIELSAQPVGLIRVHKVLVVGSTQDSLHGFTHKGKKLWTVQMPAAILTMNLLEQHSRGLQAVMAGLANGEVRIYRDKALLNVIHTPDAVTSLCFGRYGREDNTLIMTTRGGGLIIKILKRTAVFVEGGSEVGPPPAQAMKLNVPRKTRLYVDQTLREREAGTAMHRAFQTDLYLLRLRAARAYLQALESSLSPLSTTAREPLKLHAVVQGLGPTFKLTLHLQNTSTTRPVLGLLVCFLYNEALYSLPRAFFKVPLLVPGLNYPLETFVESLSNKGISDIIKVLVLREGQSAPLLSAHVNMPGSEGLAAA
partner: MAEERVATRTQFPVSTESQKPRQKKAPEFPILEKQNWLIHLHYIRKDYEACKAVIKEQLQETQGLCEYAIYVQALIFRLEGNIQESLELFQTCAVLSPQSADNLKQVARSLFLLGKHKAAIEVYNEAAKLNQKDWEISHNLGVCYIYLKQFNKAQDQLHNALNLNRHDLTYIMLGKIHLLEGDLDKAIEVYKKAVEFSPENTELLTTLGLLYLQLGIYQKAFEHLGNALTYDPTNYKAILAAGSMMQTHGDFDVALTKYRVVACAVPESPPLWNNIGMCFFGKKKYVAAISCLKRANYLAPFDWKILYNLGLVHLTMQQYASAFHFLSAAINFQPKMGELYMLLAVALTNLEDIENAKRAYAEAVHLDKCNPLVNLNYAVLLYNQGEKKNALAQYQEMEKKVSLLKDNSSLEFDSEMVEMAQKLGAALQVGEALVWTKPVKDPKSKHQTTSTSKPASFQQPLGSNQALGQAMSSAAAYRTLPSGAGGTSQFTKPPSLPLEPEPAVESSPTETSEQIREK
B2: BBSome complex member BBS4 (Homo sapiens), Q96RK4 (parent)
chain: B1 partner

Variants of: B1
Details: with bbs4_human BBS4, Q96RK4

effect of a mutation on the interaction	Variant
decreasing interaction	M390R

Variants of: B2
Details: with pcm1_human PCM1, Q15154
pcm1_human PCM1, Q15154, sequence (Q15154 whole entry): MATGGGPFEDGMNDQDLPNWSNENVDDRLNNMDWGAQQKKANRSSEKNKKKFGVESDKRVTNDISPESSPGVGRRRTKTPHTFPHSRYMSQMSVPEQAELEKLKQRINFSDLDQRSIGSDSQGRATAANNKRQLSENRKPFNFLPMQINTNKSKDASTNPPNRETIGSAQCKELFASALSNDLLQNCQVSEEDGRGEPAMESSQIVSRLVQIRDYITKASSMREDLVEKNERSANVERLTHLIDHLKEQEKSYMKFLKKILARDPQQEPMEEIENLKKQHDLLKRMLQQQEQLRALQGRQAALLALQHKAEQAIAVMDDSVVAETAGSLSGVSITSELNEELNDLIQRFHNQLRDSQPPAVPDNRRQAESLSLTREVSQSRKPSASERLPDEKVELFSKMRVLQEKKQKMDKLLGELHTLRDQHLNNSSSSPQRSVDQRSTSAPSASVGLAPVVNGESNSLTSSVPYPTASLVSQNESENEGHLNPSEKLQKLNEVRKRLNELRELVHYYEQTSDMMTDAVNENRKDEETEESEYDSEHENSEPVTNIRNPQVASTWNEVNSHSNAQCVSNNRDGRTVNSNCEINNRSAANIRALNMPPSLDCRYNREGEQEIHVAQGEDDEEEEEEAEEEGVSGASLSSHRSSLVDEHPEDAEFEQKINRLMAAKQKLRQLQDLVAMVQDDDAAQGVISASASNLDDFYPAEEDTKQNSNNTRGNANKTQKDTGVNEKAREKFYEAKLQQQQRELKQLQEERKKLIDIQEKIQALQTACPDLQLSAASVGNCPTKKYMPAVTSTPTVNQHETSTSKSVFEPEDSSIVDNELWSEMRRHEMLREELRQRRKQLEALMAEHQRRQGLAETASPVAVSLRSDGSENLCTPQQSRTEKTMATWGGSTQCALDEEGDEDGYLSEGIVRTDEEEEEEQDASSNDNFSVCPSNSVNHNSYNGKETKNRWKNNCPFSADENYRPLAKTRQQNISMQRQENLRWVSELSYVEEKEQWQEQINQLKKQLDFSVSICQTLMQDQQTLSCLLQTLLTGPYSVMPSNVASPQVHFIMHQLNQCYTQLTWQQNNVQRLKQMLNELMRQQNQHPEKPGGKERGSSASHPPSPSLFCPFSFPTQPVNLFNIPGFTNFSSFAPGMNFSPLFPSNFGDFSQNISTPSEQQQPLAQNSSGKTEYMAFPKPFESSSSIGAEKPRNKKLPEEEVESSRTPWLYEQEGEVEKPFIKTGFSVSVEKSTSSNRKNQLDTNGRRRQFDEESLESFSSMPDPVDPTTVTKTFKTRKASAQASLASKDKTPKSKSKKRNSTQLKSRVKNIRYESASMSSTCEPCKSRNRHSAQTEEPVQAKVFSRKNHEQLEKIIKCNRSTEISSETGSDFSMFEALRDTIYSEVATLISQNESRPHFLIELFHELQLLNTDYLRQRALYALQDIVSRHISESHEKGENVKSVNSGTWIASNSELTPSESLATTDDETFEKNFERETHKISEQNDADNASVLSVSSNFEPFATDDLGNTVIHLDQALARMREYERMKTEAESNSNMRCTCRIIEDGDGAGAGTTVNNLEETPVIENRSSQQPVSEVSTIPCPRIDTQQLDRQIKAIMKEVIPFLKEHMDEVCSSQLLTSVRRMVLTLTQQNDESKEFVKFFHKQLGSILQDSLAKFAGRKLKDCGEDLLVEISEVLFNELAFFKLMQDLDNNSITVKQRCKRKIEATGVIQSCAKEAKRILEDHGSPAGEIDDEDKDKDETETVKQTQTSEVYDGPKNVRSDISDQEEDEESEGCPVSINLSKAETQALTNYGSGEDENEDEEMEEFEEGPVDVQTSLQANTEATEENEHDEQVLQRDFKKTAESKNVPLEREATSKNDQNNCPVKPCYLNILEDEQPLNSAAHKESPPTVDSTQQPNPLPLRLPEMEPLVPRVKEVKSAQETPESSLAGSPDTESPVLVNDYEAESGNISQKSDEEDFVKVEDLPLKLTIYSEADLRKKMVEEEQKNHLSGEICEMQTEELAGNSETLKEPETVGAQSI

effect of a mutation on the interaction	Variant
disrupting interaction	G277E
disrupting interaction	R295P
